Source: US20210206825A1 (published 2021)

What follows are binders tested against human c-Met on cells (human, UniProt P08581 25-1390) (assay: cell-based or functional assay).
Sequence of human c-Met on cells (P08581 other isoform, or with tags, fused parts or gaps limits assumed): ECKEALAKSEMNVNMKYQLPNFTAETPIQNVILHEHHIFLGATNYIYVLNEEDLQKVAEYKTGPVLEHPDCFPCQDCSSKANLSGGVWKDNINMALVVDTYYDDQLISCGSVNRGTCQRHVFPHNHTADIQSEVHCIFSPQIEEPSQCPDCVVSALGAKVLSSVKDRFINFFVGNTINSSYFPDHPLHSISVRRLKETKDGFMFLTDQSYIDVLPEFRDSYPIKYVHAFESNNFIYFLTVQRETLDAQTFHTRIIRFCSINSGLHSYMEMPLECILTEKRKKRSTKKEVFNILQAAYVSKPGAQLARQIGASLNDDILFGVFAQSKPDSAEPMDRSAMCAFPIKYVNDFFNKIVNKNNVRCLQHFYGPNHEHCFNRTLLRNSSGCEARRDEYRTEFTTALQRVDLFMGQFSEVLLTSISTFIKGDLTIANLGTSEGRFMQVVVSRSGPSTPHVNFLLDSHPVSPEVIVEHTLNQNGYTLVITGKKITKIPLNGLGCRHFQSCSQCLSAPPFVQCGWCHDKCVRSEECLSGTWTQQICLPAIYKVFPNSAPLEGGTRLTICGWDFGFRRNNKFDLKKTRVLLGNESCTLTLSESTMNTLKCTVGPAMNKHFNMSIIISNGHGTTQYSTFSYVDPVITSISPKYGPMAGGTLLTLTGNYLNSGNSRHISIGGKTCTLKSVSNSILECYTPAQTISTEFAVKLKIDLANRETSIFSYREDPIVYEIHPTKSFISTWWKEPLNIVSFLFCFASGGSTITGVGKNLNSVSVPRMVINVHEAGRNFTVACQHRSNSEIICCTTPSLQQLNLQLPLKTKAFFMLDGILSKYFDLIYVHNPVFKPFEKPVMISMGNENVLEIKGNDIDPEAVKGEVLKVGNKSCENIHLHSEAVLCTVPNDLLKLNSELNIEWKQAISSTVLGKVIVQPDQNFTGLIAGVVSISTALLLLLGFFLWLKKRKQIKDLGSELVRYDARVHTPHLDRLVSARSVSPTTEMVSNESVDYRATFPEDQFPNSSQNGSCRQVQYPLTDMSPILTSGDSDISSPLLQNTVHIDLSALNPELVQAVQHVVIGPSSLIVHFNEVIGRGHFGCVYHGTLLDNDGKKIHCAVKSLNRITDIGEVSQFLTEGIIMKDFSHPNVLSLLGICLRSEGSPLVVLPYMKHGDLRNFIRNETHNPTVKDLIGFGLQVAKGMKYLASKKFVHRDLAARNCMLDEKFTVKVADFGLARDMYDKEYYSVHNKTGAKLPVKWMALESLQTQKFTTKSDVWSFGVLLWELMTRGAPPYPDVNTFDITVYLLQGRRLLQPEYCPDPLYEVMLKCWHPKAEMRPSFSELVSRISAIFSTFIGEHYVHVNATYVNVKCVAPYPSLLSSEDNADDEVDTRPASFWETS

Binder | inhibition of c-Met phosphorylation in NCI-H292 cells (IC50) [nM]
P114AR5P74-A5 (designed binder, not shown: small tags and cut ends) LPAPKNLVVSRVTEDSARLSWTAPDAAFDSFWIRYDEVVVGGEAIVLTVPGSERSYDLTGLKPGTEYYVNILGVKGGSISVPLSAIFTT | 610

These binders were tested against human EGFR on cells (human, UniProt P00533 25-1210) (assay: cell-based or functional assay).

Binder | Phospho-EGFR IC50 (A431 cells, Tyr1173) [nM]
P54CR4-31 (designed binder, not shown: small tags and cut ends) LPAPKNLVVSEVTEDSLRLSWTAPDAAFDSFLIQYQESEKVGEAINLTVPGSERSYDLTGLKPGTEYTVSIYGVLGSYVFEHDVMLPLSAEFTT | 179
P53A1R5-17 (designed binder, not shown: small tags and cut ends) LPAPKNLVVSEVTEDSLRLSWADPHGFYDSFLIQYQESEKVGEAINLTVPGSERSYDLTGLKPGTEYTVSIYGVHNVYKDTNMRGLPLSAEFTT | > 2500
P54AR4-83 (designed binder, not shown: small tags and cut ends) LPAPKNLVVSEVTEDSLRLSWDDPWAFYESFLIQYQESEKVGEAINLTVPGSERSYDLTGLKPGTEYTVSIYGVHNVYKDTNMRGLPLSAEFTT | 18
P54AR4-48 (designed binder, not shown: small tags and cut ends) LPAPKNLVVSEVTEDSLRLSWDDPRGFYESFLIQYQESEKVGEAINLTVPGSERSYDLTGLKPGTEYTVSIYGVHNVYKDTNMRGLPLSAEFTT | 170
P54AR4-73 (designed binder, not shown: small tags and cut ends) LPAPKNLVVSEVTEDSLRLSWTWPYADLDSFLIQYQESEKVGEAINLTVPGSERSYDLTGLKPGTEYTVSIYGVHNVYKDTNMRGLPLSAEFTT | 141
P54AR4-17 (designed binder, not shown: small tags and cut ends) LPAPKNLVVSEVTEDSLRLSWTYDRDGYDSFLIQYQESEKVGEAINLTVPGSERSYDLTGLKPGTEYTVSIYGVHNVYKDTNMRGLPLSAEFTT | 184
